Molecular target: zebrafish ΔP2X4-B (zebrafish) (UniProt F8W463)
Experiment: crystal structure

- stoichiometry N: 3
Substance: zebrafish ΔP2X4-B (from UniProt F8W463 1-389) (receptor)
